Reference: paper PMC10292028
Where a chain is given by its changes, count along the chain named. Names may count otherwise.

B1: PriB (Streptomyces sp. RM-5-8) (protein)
chain: MGGPMSGFHSGEALLGDLATGQLTRLCEVAGLTEADTAAYTGVLIESLGTSAGRPLSLPPPSRTFLSDDHTPVEFSLAFLPGRAPHLRVLVEPGCSSGDDLAENGRAGLRAVHTMADRWGFSTEQLDRLEDLFFPSSPEGPLALWCALELRSGGVPGVKVYLNPAANGADRAAETVREALARLGHLQAFDALPRADGFPFLALDLGDWDAPRVKIYLKHLGMSAADAGSLPRMSPAPSREQLEEFFRTAGDLPAPGDPGPTEDTGRLAGRPALTCHSFTETATGRPSGYTLHVPVRDYVRHDGEARDRAVAVLREHDMDSAALDRALAAVSPRPLSDGVGLIAYLALVHQRGRPTRVTVYVSSEAYEVRPPRETVPTRDRARARL
B2: 6DMATSmo (Micromonospora olivasterospora) (protein)
chain: MAGLSVSDHLDGQLARLCEVAGADPVEPRNLLAGLLGPVGPRPLYEPPAWPSGVSDDHTPVEFSIAFNEAEPPTLRILGETLGSPPGPLANLSATRGFLDAQARRAGLSTSRLDSVRDLFATDDPQGDFAMWCSLVFRSSRRPEFKVYLNPEVKGVERSPALVSEALHRLGLGASYRALLDHGVRPGELGRGDRLTFFAVDLHDGPQARVKLYLTHHEAEVWDVTRAASVVDGVDVAEIEEFCVVAGGGTRRFDGRPLVGSYTFTEGADRPVGYSIYVPIRSYVTDDQEARDRVAALLVRYGFDTDGLDRAIAAVTPRPLRDGVGLIAHVSLRLGAPRPGVTVYLSAEAYRVSPPRPRRMPAGRDVSPAPVGRTRP
B3: 6DMATSmo (Micromonospora olivasterospora; H329Y) (protein)
chain: B2 chain with H329Y
B4: 6DMATSmo (Micromonospora olivasterospora; Y277H) (protein)
chain: B2 chain with Y277H
B5: 6DMATSmo (Micromonospora olivasterospora; H329Y/Y277H) (protein)
chain: B2 chain with Y277H, H329Y

Assays:
[1] = substrate: N[C@@H](Cc1c[nH]c2ccccc12)C(=O)O; assay: HPLC end-point assay, Michaelis-Menten fit; type: biochemical, Streptomyces sp. RM-5-8; conditions: 2 mM DMAPP, 50 mM Tris pH 8.0, 37 °C
[2] = substrate: N[C@@H](Cc1c[nH]c2ccccc12)C(=O)O; assay: HPLC end-point assay, Michaelis-Menten fit; type: biochemical, Micromonospora olivasterospora; conditions: 2 mM DMAPP, 50 mM Tris pH 8.0, 37 °C

Protein	Km [1]	kcat [1]	kcat/Km [1]	Km [2]	kcat [2]	kcat/Km [2]
B1	(42.9 ± 6.9) × 10^−2 mM	0.33 ± 0.0133 s⁻¹	770 M⁻¹ s⁻¹			
B2				(33.1 ± 2.5) × 10^−2 mM	0.0917 ± 0.00167 s⁻¹	277 M⁻¹ s⁻¹
B3				(26.7 ± 1.6) × 10^−2 mM	0.000783 ± 1.17e-05 s⁻¹	2.93 M⁻¹ s⁻¹
B4				(38.2 ± 0.1) × 10^−2 mM	0.00108 ± 3.33e-05 s⁻¹	2.83 M⁻¹ s⁻¹
B5				1.0 ± 0.1 mM	0.00182 ± 3.33e-05 s⁻¹	1.82 M⁻¹ s⁻¹
